We go through 1 molecule from patent US20180207278A1 (Amgen, published 2018).

In assay [1] the target is T1, GM-CSF (immobilized on the SPR sensor chip).
T1 construct: also called immobilized GM-CSF; Granulocyte-macrophage colony stimulating factor
Put plainly: SPR (Biacore 3000, GM-CSF immobilized on CM5 chip); antibody 5.4 mg/ml in 20 mM acetate + 250 mM threonine after 14 days at 55 C. As to the method:
(§1) The surface plasmon resonance (SPR) method was established to determine the degree of antibody binding activity to immobilized GM-CSF (Biacore 3000/CM5 sensor chip/HBS-EP running buffer). The SPR method was qualified by performing a nine-point range test, from which precision (six replicate injections) and linearity (triplicate standard curves) were determined and tested.
(§2) […] Previous studies indicated stabilizing effects of: 20 mM acetate pH 5; 20 mM histidine pH 6; 250 mM glutamic acid; 250 mM threonine, 6% (w/v) sorbitol and 6% (w/v) mannitol. […] Antibody in 1×PBS was included as a control. At T0, T7 and T14 (days), samples were analyzed by SE-HPLC and SPR.

Assay [2] concerns the target T1, GM-CSF (immobilized on the SPR sensor …). In words: SPR (Biacore 3000, GM-CSF immobilized on CM5 chip); antibody 5.4 mg/ml in 1xPBS after 14 days at 55 C. The procedure:
as §1, §2

Assay [3] shares this target. Put plainly: SPR (Biacore 3000, GM-CSF immobilized on CM5 chip); antibody 5.4 mg/ml in 20 mM histidine + 250 mM glutamic acid after 14 days at 55 C. The procedure:
as §1, §2

For assay [4] the target is unchanged. In words: SPR (Biacore 3000, GM-CSF immobilized on CM5 chip); antibody 5.4 mg/ml in formulations 5-16 of Table 1 (all with mannitol or sorbitol) after 14 days at 55 C. The procedure: as §1, §2
The target is the same in assay [5]. Put plainly: SPR (Biacore 3000, GM-CSF immobilized on CM5 chip); antibody 5.4 mg/ml in 20 mM acetate + 250 mM glutamic acid after 14 days at 55 C. As to the method: as §1, §2
Assay [6] has the same target. In words: SPR (Biacore 3000, GM-CSF immobilized on CM5 chip); antibody 5.4 mg/ml in 20 mM histidine + 250 mM threonine after 14 days at 55 C.

B1: human monoclonal IgG1 antibody that binds to and neutralizes human GM-CSF (antibody, V domains shown)
VH: QVQLVQSGAEVKKPGASVKVSCKAFGYPFTDYLLHWVRQAPGQGLEWVGWLNPYSGDTNYAQKFQGRVTMTRDTSISTAYMELSRLRSDDTAVYYCTRTTLISVYFDYWGQGTMVTVSS
VL: DIQMTQSPSSVSASVGDRVTIACRASQNIRNILNWYQQRPGKAPQLLIYAASNLQSGVPSRFSGSGSGTDFTLTINSLQPEDFATYYCQQSYSMPRTFGGGTKLEIKR
notes: also called the antibody; anti-GM-CSF antibody
With B1, the “binding activity relative to T0” value in assay [1] was 26%; in assay [2], 62%; in assay [3], 91%; in assay [4] it was more than 93%; in assay [5], 19%; in assay [6], 85%.
